Measurements taken from the DeepSol protein solubility set.

Experiment: soluble on expression in E. coli; label from the status in PepcDB or PDB records

Row | Sequence | soluble on expression in E. coli
1 | AIANNSHTGFVGEMFGSSDILRSVSIPSEADKPMIVELAVAAMEELVRMAQTGDPLWVSSDNSVEILNEEEYFRTFPRGIGPKPIGLRSEASRESTVVIMNHINLIEILMDVNQWSSVFCGIVSRALTLEVLSTGVAGNYNGALQVMTAEFQVPSPLVPTRENYFVRYCKQHSDGIWAVVDVSLDSLRPSPITRSRRRPSGCLIQELQNGYSKVTWVEHIEVDDRSVHNMYKPLVNTGLAFGAKRWVATLDRQCERLASSMASNIPACDLSVITSPEGRKSMLKLAERMVMSFCTGVGASTAHAWTTLSTTGSDDVRVMTRKSV | soluble
2 | AIANSRAADQLELDGLPGTPPDFYRERQRSRVERYQSPAGAPLQCSVQVQTTQEHPLWTSHVWSGARALADTLCWQPELIAGKTVCELGAGAGLVSIVAFLAGADQVVATDYPDPEILNSLESNIREHTANSCSSETVKRASPKVVPYRWGDSPDSLQRCTGLQRFQVVLLADLLSFHQAHDALLRSVKMLLALPANDPTAVALVTFTHHRPHLAERDLAFFRLVNADGALIAEPWLSPLQMDPMFPDDPGDVCIRGQVHRWRLRWRSAASASANIPAHARNE | soluble
3 | AIARENEAVKPTIQAVYLAAGLSSRFGGRIKCLQEVGRHGETLLELSVRQLCEAYPAISSLVFVVSEATHLPIHALIGEQFYGLPVYFCVQRVPAWRKRPLGTVDALLAAREHIHGPFIVLNGDSLYGVAALSLVCNHITAAKTACMPGYKLREVLPKEGRVNRAIVQTDERHRVLEIVEQYNIGFEDIEEGRYTGDELTSMNVFGFHDTSIFARADERFRRFLSELEALRDDHHLQQQQQSVKRCSTDENDVYAHKEYILSTMLNELLHDAQIELMVLSCNSIRTPLELTNPGDFAFVKNHLDLVGL | soluble
4 | AIASSAIERKSLDPSEEPVDEVLQIPPSLLTCGGCQQNIGDRYFLKAIDQYWHEDCLSCDLCGCRLGEVGRRLYYKLGRKLCRRDYLRLFGQDGLCASCDKRIRAYEMTMRVKDKVYHLECFKCAACQKHFCVGDRYLLINSDIVCEQDIYEWTKINGMI | soluble
5 | AIATYPTNLEIIGGQGGSSFSFTGENNGASLEKIWVWVGGWQIKAVRAWLSDGRDETFGVPSGSHQEYVFTPGECFTSLSLWGNGAGTRLGAIKFKTNKGGEFFAHMTSWGLKTEYPMDVGSGYCLGIVGRGGSDIDCMGFMFLNAVQSTVLTNVNYPTINQLIPKVATEEIKSVSFENKTSVKQEQKVETSKKVIKTSSWSMTKSFSSTFSVEVSAGIPEIAEVSTGFSISFGVESTHSLEQTDEKNETLTTTVEVPPKKKVDVHITIGRASFDLPYTGTVKITCKNGSVLQYETKGQYKGVAYTDIKVNTVEKDL | soluble
6 | AKDWKWNLNWNGALNKNKVVSLPDNGLERNRQSAYQVYTGNGDEKKWVGGYQEGQRPGDLYMFVAEGLYKSQDEIPANLIDLTTGNNGSSGRPLYGGAEGYNKLTDSQKSNALPIQPGDVKWKDVNNDGVIDNYDMVKVGNTVPKWTGGINTTVSWKDLTLSARFDYALGFTAVDWKTMWIMSCAQGTYNTIEETKNTWTPENPNAKYPTYVWADQLGKRNYCRSSSMFAYNGNYIALRELSLSYKLPSILVQKAKLSNVELSITGQNLGYLTEAKHLFSPEKADNNGGYPLPRTVIFGINVSF | not soluble
7 | AKEKDTIRTEGVVTEALPNATFRVKLDSGPEILAYISGKMRMHYIRILPGDRVVVEITPYDPTRGRIVYRK | soluble
8 | AKKAMEQILIPVANPETIENLVNLALVIKDAKQKNGMIALNVINDNNSSENKELQGKRNLEKAAMIAAAADVPVTMVSRYDLNIASGIIHTIKEYEATDVVIGLHRKANIVDSFFGNLAESLLKGTHREVMIAKFLM | not soluble
9 | AKNECHPERTDGCQHFCLPGQESYTCSCAQGYRLGEDHKQCVPHDQCACGVLTSEKRAPDLQDLPWQVKLTNSEGKDFCGGVIIRENFVLTTAKCSLLHRNITVKTYFNRTSQDPLMIKITHVHVHMRYDADAGENDLSLLELEWPIQCPGAGLPVCTPEKDFAEHLLIPRTRGLLSGWARNGTDLGNSLTTRPVTLVEGEECGQVLNVTVTTRTYCERSSVAAMHWMDGSVVTREHRGSWFLTGVLGSQPVGGQAHMVLVTKVSRYSLWFKQIMNAHHHHHH | soluble
10 | AKTAAALHILVKEEKLALDLLEQIKNGADFGKLAKKHSICPSGKRGGDLGEFRQGQMVPAFDKVVFSCPVLEPTGPLHTQFGYHIIKVLYRN | soluble
11 | AKTTIIAGSAEAPQGSDIQVPVKIENADKVGSINLILSYPNVLEVEDVLQGSLTQNSLFDYQVEGNQIKVGIADSNGISGDGSLFYVKFRVTGNEKAEQAENVKGKLRGLGQQLSEITLRNSHALTLQGIEIYDIDGNSVKVATINGTFRIVSQEEAHHHHHH | soluble
12 | ALNPNEHQLIKNVFGFIDVTVRQVMTPRTSINAIDIDLPLEYVLNKIVNEGYSRLPVYKDNIDNIIGILYTKDLLKMMNKGEQIKLQSAMRQPYFVPETKKINELLKNLQAKHLHMAIIIDEFGGVSGITTIEDIIEELVGEIQDEHDDEAPVVEQVSA | not soluble
13 | ALVGDNLEQIDARLVNSLPLFKDQEGRDVNVRVGRYGPYLERQVGVSEDGEPEYQRANLSDSTTPDELTLELAEKLFATPQSGRELGRNPKNNRMIVAKEGRFGPYVTELVNDDERTEVEAKAEEIVAAEREAEDLQRAAEGKRAKNWGTKTAAAQKEKRIAQIIEETLKPSTASLFKTMEPSSVTLDEALQLLALPREVGVDPSDNEVITAQNGRYGPYLKKGSDSRTLASEDQIFSITLDEARRIYAEPKRRGRGATSQSVIKQLGDNDVSGKPMSVRDGRFGPYVTDGTTNASLRRGDDPTQLTEARANELLSERRAKEAADGGSSKKATKKASKKTTKRVAKAGARKKK | not soluble
14 | ALYGNSSGGVINVTSQTGAQPPTVEASSYYGSFGTWHYGMKATGAVGDGSHAGDVDYTVSTNRFTTHGYRDHSGARKNLANARLGVRINDVSKLTLLLNSVDIKANDAGGLTADEWRDNPRQSPRGDQYNTRKNTRQTQAGLRYERQLSAQDDLSVMMYAGERETTQFQSIPRAPQLKPSHAGGVIDLTRHYQGIDTRLTHRGELLVPVTLTAGLDYENMSERRKGYENFVMVNGAPQYGEQGALRRNERNLMWNVDPYLQTQWQLTDKLSLDAGVRYSSVWFDSNDYYITPGNGDDSGDASYHKWLPAGSLKYALTDAWNVYLSAGRGFETPTINELSYRSDNQSGLNFGLKPSTNDTVEIGSKTRIGNGLFTAALFQTNTDNEIVVDSSSGGRTSYKNAGKTRRQGMELGLDQQFGESWRLKAAWTWLDATYRTNVCDDASCNGNRIPGIARNMGYASFGYQPEQGWYAGSDIRYMSDIMANDENTAKAPSWTVVGLTTGYKWSYGRMDMDLFGRIDNLFDREYVGSVIVNESNGRYYEPAPGRNYGIGLNLAWRFE | not soluble
15 | AMAISDPQSSTRNELETGSSSACPKVIYIFARASTEPGNMGISAGPIVADALERIYGANDVWVQGVGGPYLADLASNFLPDGTSSAAINEARRLFTLANTKCPNAAIVSGGYSQGTAVMAGSISGLSTTIKNQIKGVVLFGYTKNLQNLGRIPNFETSKTEVYCDIADAVCYGTLFILPAHFLYQTDAAVAAPRFLQARIG | soluble
16 | AMEVHPISEFASPFEVFKCIERDFKVAGLLESIGGPQYKARYSVIAWSTNGYLKIHDDPVNILNGYLKDLKLADIPGLFKGGMIGYISYDAVRFWEKIRDLKPAAEDWPYAEFFTPDNIIIYDHNEGKVYVNADLSSVGGCGDIGEFKVSFYDESLNKNSYERIVSESLEYIRSGYIFQVVLSRFYRYIFSGDPLRIYYNLRRINPSPYMFYLKFDEKYLIGSSPELLFRVQDNIVETYPIAGTRPRGADQEEDLKLELELMNSEKDKAEHLMLVDLARNDLGKVCVPGTVKVPELMYVEKYSHVQHIVSKVIGTLKKKYNALNVLSATFPAGTVSGAPKPMAMNIIETLEEYKRGPYAGAVGFISADGNAEFAIAIRTAFLNKELLRIHAGAGIVYDSNPESEYFETEHKLKALKTAIGVR | soluble
17 | AMGQTVTTPLSLTLGHWKDVERIAHNQSVDVKKRRWVTFCSAEWPTFNVGWPRDGTFNRDLITQVKIKVFSPGPHGHPDQVPYIVTWEALAFDPPPWVKP | soluble
18 | ANADNYKNVINRTGAPQYMKDYDYDDHQRFNPFFDLGAWHGHLLPDGPNTMGGFPGVALLTEEYINFMASNFDRLTVWQDGKKVDFTLEAYSIPGALVQKLTAKDVQVEMTLRFATPRTSLLETKITSNKPLDLVWDGELLEKLEAKEGKPLSDKTIAGEYPDYQRKISATRDGLKVTFGKVRATWDLLTSGESEYQVHKSLPVQTEINGNRFTSKAHINGSTTLYTTYSHLLTAQEVSKEQMQIRDILARPAFYLTASQQRWEEYLKKGLTNPDATPEQTRVAVKAIETLNGNWRSPGGAVKFNTVTPSVTGRWFSGNQTWPWDTWKQAFAMAHFNPDIAKENIRAVFSWQIQPGDSVRPQDVGFVPDLIAWNLSPERGGDGGNWNERNTKPSLAAWSVMEVYNVTQDKTWVAEMYPKLVAYHDWWLRNRDHNGNGVPEYGATRDKAHNTESGEMLFTVKKGDKEETQSGLNNYARVVEKGQYDSLEIPAQVAASWESGRDDAAVFGFIDKEQLDKYVANGGKRSDWTVKFAENRSQDGTLLGYSLLQESVDQASYMYSDNHYLAEMATILGKPEEAKRYRQLAQQLADYINTCMFDPTTQFYYDVRIEDKPLANGCAGKPIVERGKGPEGWSPLFNGAATQANADAVVKVMLDPKEFNTFVPLGTAALTNPAFGADIYWRGRVWVDQFWFGLKGMERYGYRDDALKLADTFFRHAKGLTADGPIQENYNPLTGAQQGAPNFSWSAAHLYMLYNDFFRKQ | soluble
19 | ANNGAHRDMDLNTFIASAEAIAPYLHSFVSAGWESAGNPAAQLLSALRPIGIEAEQAMFAATQGVNTHKGMIFILGLICGSVGWLKANQLKIDAQHIGETIRQACQFLVIDELKAKRDCEPETAGERIYRQYGLTGARGEAASGLAMVMQHALPAYQACLTKGASTEQALWHTLLVLMANNNDSNLVSRGGLAGLHFVQEQAQQLLAKGGFLYQEIEQALTALDSVLIEKHLS | not soluble
20 | ANVEIYTKETCPYCHRAKALLSSKGVSFQELPIDGNAAKREEMIKRSGRTTVPQIFIDAQHIGGYDDLYALDARGGLDPLLK | soluble
21 | APFTLLYDLLHPYGFNRDQIREVATSLDNPPGASFFSSSHRLLRERDRLTVLPLSPKMEVPELFGLKIGDSFLDLPDGKQLSWQRGTPADLDLEGLRLPNTKLLLPLAFVESLQEELGVRRPQRGDHIHPYGMKGCKTVSRFFIDRHVPRSRREEAWLLCQGTEVVWIMGYAADRRFAIDELSDTEEYLLFSFGL | not soluble
22 | APTIPQGQGKVTFNNTVVDAPCSISQKSADQSIDFGQLSKSFLEAGGVSKPMDLDIELVNCDITAFKGGNGAKKGTVKLAFTGPIVNGHSDELDTNGGTGLAIVVQGAGKNVVFDGSEGDANTLKDGENVLHYTAVVKKSSAVGAAVTEGAFSAVANFNLTYQ | soluble
23 | APTSSNDTGKTVVAVTACPTGIAHTYMAAEKLQETANKLGVRIKVETNGSRGVENRLTDKEIAEADGVIIAADVQVDMPRFDGKHLIAKPVAAGIHKPEELIKEAISGNAPVYKAESGSEATEST | not soluble
24 | AQNSTVKINGLTLVQSSNQLNEAITGVTIDLKKAEIGKIVTLTVDDNKDQLTGLINEFIKQYNDTMTFLTNLTGYNNETKQGGVFQGDPQFRNLKLNLNKWATTPLANQEGPIRSLADLGIITNKQGLLEIKQDKFKTALDNHYKEIGALFAKTAKANDTGINVKSINSTVKSGTYDVVLTEFTPGVSMSGTIGGLSAISSDGITLTGSADLSGLSINVFSGSAGSRGQITVTDGIAVQLSSLLDAYIEIKGDLEQRKDQLNNQVKQLNKIQNEIDIRRKSIETRYLKQFTALDTLLSQLQS | soluble
